Data taken from US20210145976A1 (ARO BIOTHERAPEUTICS, published 2021).
Positions count from the first letter of the chain named. Where two headings read alike, the source gives them in different places.

B1: SEQ ID NO 235 (designed binder)
chain: MLPAPKNLVVSRVTEDSARLSWTAPDAAFDSFSINYREWWSDGEAIYLPVPGSERSYDLTGLKPGTEYAVYIQGVKGGSRSFPLHAWFTT
notes: FN3 domain
B2: SEQ ID NO 217 (designed binder)
chain: MLPAPKNLVVSRVTEDSARLSWTAPDAAFDSFIIEYWEWYFAGEAIVLTVPGSERSYDLTGLKPGTEYTVWITGVKGGTWSEPLSAIFTT
notes: FN3 domain
B3: SEQ ID NO 50 (designed binder)
chain: B2 chain with I33V, W37R, W39G, Y40A, F41W, A42Y, T69F, W71D, T79W, E82D
notes: FN3 domain
B4: SEQ ID NO 92 (designed binder)
chain: B2 chain with I33L, E35R, F41V, A42L, T69Y, W71E, T73S, T79W, W80Q, E82W
notes: FN3 domain
B5: SEQ ID NO 259 (designed binder)
chain: B2 chain with I33T, W37F, W39F, Y40V, F41D, T69W, W71E, T73W, T79S, E82K
notes: FN3 domain
B6: SEQ ID NO 62 (designed binder)
chain: MLPAPKNLVVSRVTEDSARLSWTAPDAAFDSFPILYLELNHHGEEIVLTVPGSERSYDLTGLKPGTEYWVYIFGVKGGMYSAPLSAIFTTGG
modifications: VC-MMAF conjugate (site not given)
B7: SEQ ID NO 190 (designed binder)
chain: MLPAPKNLVVSRVTEDSARLSWTAPDAAFDSFFIGYPEYPATGEAITLFVPGSERSYDLTGLKPGTEYNVVIQGVKGGRPSNPLVVAFTT
notes: FN3 domain
B8: SEQ ID NO 252 (designed binder)
chain: MLPAPKNLVVSRVTEDSARLSWTAPDAAFDSFDIGYTEYGGYGEAIVLTVPGSERSYDLTGLKPGTEYWVLIQGVKGGGSSVPLSAIFTT
notes: FN3 domain
B9: SEQ ID NO 302 (designed binder)
chain: B8 chain with G35Y, T37P, G40Y, G41D, Y42R, W69T, L71Y, Q73D, S80G, V82G
notes: FN3 domain
B10: SEQ ID NO 238 (designed binder)
chain: MLPAPKNLVVSRVTEDSARLSWTAPDAAFDSFKIFYQEFGGEAIVLTVPGSERSYDLTGLKPGTEYWVDIYGVKGGYTSSPLSAIFTT
notes: FN3 domain
B11: SEQ ID NO 61 (designed binder)
chain: MLPAPKNLVVSRVTEDSARLSWRVESRTFDSFLIQYQESEKVGEAIVLTVPGSERSYDLTGLKPGTEYTVSIYGVVWDTRDNPISNPLSAIFTT
notes: FN3 domain
B12: SEQ ID NO 36 (designed binder)
chain: MLPAPKNLVVSRVTEDSARLSWTAPDAAFDSFTITYIEWWENGEAIALSVPGSERSYDLTGLKPGTEYQVGIAGVKGGYKSYPLWALFTT
notes: FN3 domain
B13: SEQ ID NO 194 (designed binder)
chain: MLPAPKNLVVSRVTEDSARLSWTAPDAAFDSFEIDYDELAIYGEAIVLTVPGSERSYDLTGLKPGTEYRVFIYGVKGGWTSWPLSTIFTT
notes: FN3 domain
B14: SEQ ID NO 226 (designed binder)
chain: MLPAPKNLVVSRVTEDSARLSWTAPDAAFDSFHIIYEEVLTEGEAIYLRVPGSERSYDLTGLKPGTEYGVTIKGVKGGAYSIPLIATFTT
notes: FN3 domain
B15: SEQ ID NO 44 (designed binder)
chain: MLPAPKNLVVSRVTEDSARLSWTAPDAAFDSFYIEYYESLPDGEAIVLTVPGSERSYDLTGLKPGTEYAVYIYGVKGGYYSRPLSAIFTT
notes: FN3 domain
B16: SEQ ID NO 104 (designed binder)
chain: B15 chain with R12H, Y33D, S39L, L40V, P41G, D42S, A69Y, Y71A, Y80L
notes: FN3 domain
B17: SEQ ID NO 134 (designed binder)
chain: B15 chain with Y33W, E35D, S39R, L40K, P41Y, D42V, A69E, Y71T, Y79W, R82D
notes: FN3 domain
B18: SEQ ID NO 95 (designed binder)
chain: B15 chain with Y33R, E35S, S39W, L40Y, P41D, D42L, A69W, Y71D, Y73A, R82Y
notes: FN3 domain
B19: SEQ ID NO 58 (designed binder)
chain: MLPAPKNLVVSRVTEDSARLSWTAPDAAFDSFTIWYAEADGWGEAIVLTVPGSERSYDLTGLKPGTEYFVDIYGVKGGYLSVPLSAIFTT
notes: FN3 domain
B20: SEQ ID NO 51 (designed binder)
chain: MLPAPKNLVVSRVTEDSARLSWTAPDAAFDSFFIKYIEWWADGEAIVLTVPGSERSYDLTGLKPGTEYLVEIYGVKGGKWSWPLSAIFTT
notes: FN3 domain
B21: SEQ ID NO 49 (designed binder)
chain: B20 chain with F33G, K35S, I37L, A41E, L69W, E71S, Y73A, W80R, W82Y
notes: FN3 domain
B22: SEQ ID NO 52 (designed binder)
chain: B20 chain with F33K, K35S, I37Q, A41E, L69W, E71N, Y73S, K79V, W80Q, W82Y
notes: FN3 domain
B23: SEQ ID NO 59 (designed binder)
chain: B19 chain with A39W, D40E, G41D, W42E, F69R, D71E, L80P, V82K
notes: FN3 domain

How the values were obtained:
[1] = biological target: T1, CD71 on SK-BR-3 cells (human, UniProt P02786 1-760); test: cell-based or functional assay
T1 sequence (P02786 whole entry, the tested form may be a part): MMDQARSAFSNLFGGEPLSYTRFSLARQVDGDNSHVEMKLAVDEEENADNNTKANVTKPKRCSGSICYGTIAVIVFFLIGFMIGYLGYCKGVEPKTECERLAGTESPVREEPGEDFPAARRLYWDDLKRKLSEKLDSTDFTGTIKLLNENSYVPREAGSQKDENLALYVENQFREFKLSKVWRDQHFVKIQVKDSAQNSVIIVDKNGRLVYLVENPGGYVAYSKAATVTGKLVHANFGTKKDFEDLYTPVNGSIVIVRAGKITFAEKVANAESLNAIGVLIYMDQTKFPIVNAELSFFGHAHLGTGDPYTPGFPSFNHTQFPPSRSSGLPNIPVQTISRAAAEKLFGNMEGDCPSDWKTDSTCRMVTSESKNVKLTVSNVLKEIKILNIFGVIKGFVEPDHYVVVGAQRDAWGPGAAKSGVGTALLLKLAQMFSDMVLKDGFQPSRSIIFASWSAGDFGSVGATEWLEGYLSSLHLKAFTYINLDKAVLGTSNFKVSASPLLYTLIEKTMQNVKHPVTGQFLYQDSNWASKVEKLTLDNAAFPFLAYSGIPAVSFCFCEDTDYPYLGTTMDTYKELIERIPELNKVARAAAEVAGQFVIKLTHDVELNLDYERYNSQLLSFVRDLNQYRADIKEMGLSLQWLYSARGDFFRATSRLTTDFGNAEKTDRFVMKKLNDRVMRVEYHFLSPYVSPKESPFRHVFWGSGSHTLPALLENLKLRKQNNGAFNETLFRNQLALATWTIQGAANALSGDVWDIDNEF

[2] = biological target: T2, recombinant biotinylated CD71 extracellular domain (Sino Biologics) with an N-terminal 6His tag (human, UniProt P02786 89-760, biotinylated (sites not given)); test: screening ELISA
T2 construct: extracellular domain; also called hCD71; huCD71
T2 sequence (P02786 other isoform, or with tags, fused parts or gaps): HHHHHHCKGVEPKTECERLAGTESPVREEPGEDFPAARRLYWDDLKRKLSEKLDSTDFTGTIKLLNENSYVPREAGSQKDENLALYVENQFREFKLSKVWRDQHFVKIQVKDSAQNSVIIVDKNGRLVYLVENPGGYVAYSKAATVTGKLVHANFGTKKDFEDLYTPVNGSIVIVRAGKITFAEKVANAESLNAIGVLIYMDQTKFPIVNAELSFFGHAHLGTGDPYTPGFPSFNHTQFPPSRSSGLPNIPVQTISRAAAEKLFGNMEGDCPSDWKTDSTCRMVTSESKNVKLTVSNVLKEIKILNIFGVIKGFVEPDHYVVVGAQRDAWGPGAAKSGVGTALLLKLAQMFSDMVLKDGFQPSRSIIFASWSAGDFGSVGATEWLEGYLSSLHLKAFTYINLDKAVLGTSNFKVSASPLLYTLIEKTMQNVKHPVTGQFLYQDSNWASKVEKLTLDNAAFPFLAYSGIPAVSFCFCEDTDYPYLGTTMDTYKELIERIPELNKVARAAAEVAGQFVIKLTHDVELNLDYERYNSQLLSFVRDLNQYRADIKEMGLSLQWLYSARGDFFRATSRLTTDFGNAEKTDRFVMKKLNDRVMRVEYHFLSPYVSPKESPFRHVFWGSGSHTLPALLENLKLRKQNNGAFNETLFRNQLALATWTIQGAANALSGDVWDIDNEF

[3] = biological target: T2, recombinant biotinylated CD71 …; test: screening ELISA, ratio
[4] = biological target: T2, recombinant biotinylated CD71 …; test: screening ELISA, ratio; remark: listed apart in the source
Procedure: (§1) To screen for FN3 domains that specifically bind CD71, streptavidin-coated Maxisorp plates (Nunc catalog 436110) were blocked for 1 hour in Starting Block T20 (Pierce) and then coated with biotinylated CD71 (using same antigen as in panning) or negative controls (an unrelated Fc-fused recombinant protein and human serum albumin) for 1 hour. Plates were rinsed with TBST and diluted lysate was applied to plates for 1 hour. Following additional rinses, wells were treated with HRP-conjugated anti-V5 tag antibody (Abcam, ab1325), for 1 hour and then assayed with POD (Roche, 11582950001).

[5] = biological target: T1, CD71 on SK-BR-3 cells; test: cell-based or functional assay; remark: listed apart in the source
[6] = biological target: T2, recombinant biotinylated CD71 …; test: screening ELISA; remark: listed apart in the source
Procedure: as §1

[7] = biological target: T1, CD71 on SK-BR-3 cells; test: cell-based or functional assay; remark: listed apart in the source

| Binder | IC50, SKBR-3 viability, MMAF conjugate, first unlabelled column (+/- human transferrin) [1] [nM] | IC50, SKBR-3 viability, MMAF conjugate, second unlabelled column (+/- human transferrin) [1] [nM] | hCD71 [2] | hCD71:HSA [3] | huCD71/Fc [4] | IC50, SKBR-3 cell viability, MMAF conjugate [5] [nM] | hCD71 [6] | IC50, SK-BR3 viability, MMAF conjugate, no competitor [7] [nM] | IC50, SK-BR3 viability, MMAF conjugate, with 0.6 uM holo-human transferrin [7] [nM] |
| --- | --- | --- | --- | --- | --- | --- | --- | --- | --- |
| B1 | 1.75 | 10.6 | 3.92e+06 | 2910 | – | – | – | – | – |
| B2 | 15.8 | 2.46 | 3.9e+06 | 332 | – | – | – | – | – |
| B3 | – | – | – | – | 4490 | 3.1 | 1.08e+07 | – | – |
| B4 | 5.49 | 1.06 | 3.85e+06 | 2960 | – | – | – | – | – |
| B5 | 27.5 | – | 2.44e+06 | 1160 | – | – | – | – | – |
| B6 | – | – | – | – | – | – | – | > 0.005 | 0.6 |
| B7 | 36 | 12 | 3.21e+06 | 656 | – | – | – | – | – |
| B8 | 24.6 | 7.74 | 2.98e+06 | 1190 | – | – | – | – | – |
| B9 | 164 | 27.8 | 2.67e+06 | 126 | – | – | – | – | – |
| B10 | – | 7.23 | 2.88e+06 | 679 | – | – | – | – | – |
| B11 | – | – | – | – | 461 | 1.93 | 4.9e+06 | – | – |
| B12 | – | – | – | – | 535 | 7.1 | 3.3e+06 | – | – |
| B13 | – | 5.09 | 562000 | 32 | – | – | – | – | – |
| B14 | – | 8.32 | 4.33e+06 | 1520 | – | – | – | – | – |
| B15 | – | – | – | – | 44.8 | 2.5 | 176000 | – | – |
| B16 | 301 | 5.9 | 3.58e+06 | 2100 | – | – | – | – | – |
| B17 | 165 | 8.54 | 3.08e+06 | 1580 | – | – | – | – | – |
| B18 | 28.3 | 12.7 | 4.21e+06 | 2210 | – | – | – | – | – |
| B19 | – | – | – | – | 62.9 | 7.7 | 302000 | – | – |
| B20 | – | – | – | – | 2290 | 4.9 | 9.71e+06 | – | – |
| B21 | – | – | – | – | 948 | 3 | 1.09e+07 | – | – |
| B22 | – | – | – | – | 5750 | 6.3 | 1.01e+07 | – | – |
| B23 | – | – | – | – | 608 | 4 | 1.95e+06 | – | – |
